From patent US20230135723A1, “ANTI-CD98 ANTIBODIES AND ANTIBODY DRUG CONJUGATES” (AbbVie Inc., priority 2016, published 2023)
Marks after values point to notes of the source that are not given here.

Tests used:
[1] = test system: NCI-H146 (human small cell lung cancer) xenograft; experiment: NCI-H146 xenograft tumor growth inhibition; format: in vivo, SCID-bg mice; settings: for Growth Inhibition TGImax (%): 10 mg/kg/day IP QDx1; for Response Frequency CR (%): 10 mg/kg/day IP QDx1, complete responders; for Response Frequency OR (%): 10 mg/kg/day IP QDx1, overall responders; for Response Frequency PR (%): 10 mg/kg/day IP QDx1, partial responders; for Growth Inhibition TGD (%): 10 mg/kg/day IP QDx1, tumor growth delay to 1 cm^3
Experimental: The in vivo efficacy of anti-CD98 hybridoma mAb conjugates were tested using Ab3-CZ and Ab5-CZ as examples in NCI-H146 (human small cell lung cancer) xenograft model. The two anti-CD98 hybridoma mAb, Ab3-CZ and Ab5-CZ, were conjugated to the Bcl-xL inhibitor synthon CZ according to Method A. NCI-H146 was obtained from the American Type Culture Collection (ATCC, Manassas, Va.). The cells were cultured as monolayers in RPMI-1640 culture media (Invitrogen, Carlsbad, Calif.) that was supplemented with 10% Fetal Bovine Serum (FBS, Hyclone, Logan, Utah). To generate xenografts, 5×10^6 (NCI-H146) viable cells were inoculated subcutaneously into the right flank of immune deficient female SCID-bg mice (Charles River Laboratories, Wilmington, Mass.). The injection volume was 0.2 mL and composed of Matrigel (BD, Franklin Lakes, N.J.). Tumors were size matched at approximately 212 mm^3. Antibodies and conjugates were formulated in phosphate buffered saline, pH 7.2 and injected intraperitoneally. […] Therapy began within 24 hours after size matching of the tumors. Mice weighed approximately 21 g at the onset of therapy. Tumor volume was estimated two to three times weekly. Measurements of the length (L) and width (W) of the tumor were taken via electronic caliper and the volume was calculated according to the following equation: V=L×W^2/2. Mice were euthanized when tumor volume reached 3,000 mm^3 or skin ulcerations occurred. Eight mice were housed per cage. Food and water were available ad libitum. Mice were acclimated to the animal facilities for a period of at least one week prior to commencement of experiments. Animals were tested in the light phase of a 12-hour light: 12-hour dark schedule (lights on at 06:00 hours). Anti-CD98 conjugates (10 mg/kg) were administered as a single dose (QD×1) intraperitoneally. A human IgG control antibody (MSL109, a humanized IgG1 antibody that binds to cytomegalovirus (CMV) glycoprotein H) was used as a negative control agent.
To refer to efficacy of therapeutic agents, parameters of amplitude (TGImax), durability (TGD) and response frequency (CR, PR, OR) of therapeutic response are used. The efficacy of inhibition of NCI-H146 xenografts growth with CD98-targeted ADCs is illustrated by Table 6, below. In the tables, to refer to efficacy, parameters of amplitude (TGImax) and durability (TGD) of therapeutic response are used. TGImax is the maximum tumor growth inhibition during the experiment. Tumor growth inhibition is calculated by 100*(1−Tv/Cv) where Tv and Cv are the mean tumor volumes of the treated and control groups, respectively. TGD or tumor growth delay is the extended time of a treated tumor needed to reach a volume of 1 cm^3 relative to the control group. TGD is calculated by 100*(Tt/Ct−1) where Tt and Cr are the median time periods to reach 1 cm^3 of the treated and control groups, respectively. Distribution of the response amplitude in a specific group is given by the frequency of complete responders (CR), partial responders (PR), and overall responders (OR). CR is the percentage of mice within a group with a tumor burden of 25 mm^3 for at least three measurements. PR is the percentage of mice within a group with a tumor burden larger than 25 mm^3 but less than one-half of the volume at onset of treatment for at least three measurements. OR is the sum of CR and PR.

[2] = Percent aggregates of ADC by size exclusion chromatography; format: physicochemical; settings: chAb3-CZ DAR2, DAR4 and broad DAR species (Table 12)
From the text: Procedures for DAR and percent aggregate determination are described above in Example 5.

[3] = test system: EBC-1 (human lung squamous cell carcinoma) xenograft; experiment: EBC-1 xenograft tumor growth inhibition; format: in vivo; settings: 10 mg/kg/day IP QDx1, SCID-bg mice

## MSL109: "a humanized IgG1 antibody that binds to cytomegalovirus (CMV) glycoprotein H", "used as a negative control agent" [reference compound]
[1]
  Growth Inhibition TGImax (%): 0%
  Response Frequency CR (%): 0%
  Response Frequency OR (%): 0%
  Response Frequency PR (%): 0%
  Growth Inhibition TGD (%): 0%

B1: Ab3-CZ (conjugate)
VH: EVKLVESGGGLVQPGNSLRLSCATSGFTFIDYYMSWVRQSPGKALEWLGFIRNKANGYTTEYSASVKGRFTISRDNSQSILYLQMDTLRAEDSATYYCTRDRPAWFVYWGQGTLVTVSA
VL: DIVMSQSPSSLAVSVGEKVTMSCKSSQSLLYSSNQKNYLAWYQQKPGQSPKLLIYWASTRESGVPDRFTGSGSGTDFTLTFSSVRAEDLAVYYCQQYYSYPYTFGGGTKLEIK
[1]
  Growth Inhibition TGImax (%): 79* %
  Response Frequency CR (%): 0%
  Response Frequency OR (%): 50%
  Response Frequency PR (%): 50%
  Growth Inhibition TGD (%): 81* %

B2: Ab5-CZ (conjugate)
VH: EVKLVESGGGLVQPGGSLRLSCATSGFTFTDYYMTWVRQPPGKALEWLGFIRNKANGYTTEYSASVKGRFTISRDNSLSILYLQMNTLRAEDSATYYCARASYVNSEGWFAYWGQGTLVTVSA
VL: DIVMSQSPSSLAVSVGEKVTMSCKSSQSLLYSSNQKNYLAWYQQKLGQSPKLLIYWASTRESGVPDRFTGSGSGTDFTLTISSVKAEDLAVYYCQHYYSYPRTFGGGTKLEIK
[1]
  Growth Inhibition TGImax (%): 76* %
  Response Frequency CR (%): 0%
  Response Frequency OR (%): 0%
  Response Frequency PR (%): 0%
  Growth Inhibition TGD (%): 76* %

B3: ChAb3- CZ-DAR4 (conjugate)
VH: EVKLVESGGGLVQPGNSLRLSCATSGFTFIDYYMSWVRQSPGKALEWLGFIRNKANGYTTEYSASVKGRFTISRDNSQSILYLQMDTLRAEDSATYYCTRDRPAWFVYWGQGTLVTVSA
VL: DIVMSQSPSSLAVSVGEKVTMSCKSSQSLLYSSNQKNYLAWYQQKPGQSPKLLIYWASTRESGVPDRFTGSGSGTDFTLTFSSVRAEDLAVYYCQQYYSYPYTFGGGTKLEIK
[2]
  % Aggregates by SEC: 13.8%

B4: ChAb3-CZ (conjugate)
VH: EVKLVESGGGLVQPGNSLRLSCATSGFTFIDYYMSWVRQSPGKALEWLGFIRNKANGYTTEYSASVKGRFTISRDNSQSILYLQMDTLRAEDSATYYCTRDRPAWFVYWGQGTLVTVSA
VL: DIVMSQSPSSLAVSVGEKVTMSCKSSQSLLYSSNQKNYLAWYQQKPGQSPKLLIYWASTRESGVPDRFTGSGSGTDFTLTFSSVRAEDLAVYYCQQYYSYPYTFGGGTKLEIK
[3]
  Growth Inhibition TGD (%): 37* %
  Growth Inhibition TGImax (%): 54* %
  Response Frequency CR (%): 0%
  Response Frequency OR (%): 0%
  Response Frequency PR (%): 0%

B5: ChAb5-CZ (conjugate)
VH: EVKLVESGGGLVQPGGSLRLSCATSGFTFTDYYMTWVRQPPGKALEWLGFIRNKANGYTTEYSASVKGRFTISRDNSLSILYLQMNTLRAEDSATYYCARASYVNSEGWFAYWGQGTLVTVSA
VL: DIVMSQSPSSLAVSVGEKVTMSCKSSQSLLYSSNQKNYLAWYQQKLGQSPKLLIYWASTRESGVPDRFTGSGSGTDFTLTISSVKAEDLAVYYCQHYYSYPRTFGGGTKLEIK
[3]
  Growth Inhibition TGD (%): 61* %
  Growth Inhibition TGImax (%): 70* %
  Response Frequency CR (%): 0%
  Response Frequency OR (%): 0%
  Response Frequency PR (%): 0%

B6: ChAb13-CZ (conjugate)
VH: QVQLKESGPGLVQPSQTLSLTCTVSGFSLSSYGVIWVRQPPGKGLEWMGIIWANGNTNYNSALKSRLSISRDTSKSQVYLKMNSLQTEDTATYYCARHYYDGTHYYGYFDYWGQGVMVTVSS
VL: DTVMTQTPSSQAVSAGEKVTMSCKSSQSLLYSENKKKYLAWYQQKPGQSPKLLIYWASTRESGVPDRFIGSGSGTDFTLTISSVQAEDLAVYYCQQYYNFPYTFGAGTKLELK
[3]
  Growth Inhibition TGD (%): 47* %
  Growth Inhibition TGImax (%): 61* %
  Response Frequency CR (%): 0%
  Response Frequency OR (%): 0%
  Response Frequency PR (%): 0%

B7: ChAb11-CZ (conjugate)
VH: EVQLVESGGGLVQPGRSLKLSCAASGFTFSDYAMAWVRQAPKKGLEWVAGIIYDGRGTYYRDSVKGRFTISRDNAKSTLYLQMDSLRSEDTATYYCARQGDGTYYYWGYFDYWGQGVMVTVSS
VL: DIVMTQSPSSLAVSAGETVTINCRSSQSLLSSGNQKNYLAWYQQKPGQSPKLLIYWASTRQSGVPDRFIGSGSGTDFTLTISSVQAEDLAIYYCQQYYDTPYTFGAGTKLELK
[3]
  Growth Inhibition TGD (%): 37* %
  Growth Inhibition TGImax (%): 55* %
  Response Frequency CR (%): 0%
  Response Frequency OR (%): 0%
  Response Frequency PR (%): 0%

B8: ChAb12-CZ (conjugate)
VH: EVQLVESGGGLVQPGRSLKLSCAASGFTFSDYAMAWVRQAPKKGLEWVASIIYDGRGTYYRDSVKGRFTISRDNAKSTLYLQMDSLRSEDTATYYCARQGDGTYYYWGSFDYWGQGVMVTVSS
VL: DIVMTQSPSSLAVSAGETVTINCKSSQSLLSSGNQKNYLAWYQQKPGQSPKLLIYWASTRQSGVPDRFIGSGSGTDFTLTISSVQAEDLAIYHCQQYYDTPYTFGAGTKLELK
[3]
  Growth Inhibition TGD (%): 74* %
  Growth Inhibition TGImax (%): 76* %
  Response Frequency CR (%): 0%
  Response Frequency OR (%): 25%
  Response Frequency PR (%): 25%

B9: ChAb8-CZ (conjugate)
VH: EVQLVESGGGLVQPGRSLKLSCAASGFTFSDYAMAWVRQAPKKGLEWVASIIYDGRGTYYRDSVKGRFTISRDNAKSTLYLQMDSLRSEDTATYYCARQGDGTYYYWGYFDYWGQGVMVTVSS
VL: DIVMTQSPSSLAVSAGETVTINCKSSQSLLSSGNQKNYLAWYQQKPGQSPKLLIYWASTRQSGVPDRFIGSGSGTDFTLTINSVQAEDLAIYYCQQYYDTPYTFGAGTKLELK
[3]
  Growth Inhibition TGD (%): 42* %
  Growth Inhibition TGImax (%): 56* %
  Response Frequency CR (%): 0%
  Response Frequency OR (%): 0%
  Response Frequency PR (%): 0%

B10: ChAb15-CZ (conjugate)
VH: EVQLVESGGGLVQPGRSLKLSCAASGFTFSDYTMAWVRQAPKKGLEWVATIIYDGRGTYYRDSVKGRFTISRDNAKSTLYLQMDSLRSEDTATYYCARQSDGTYYYWGYFDYWGQGVMVTVSS
VL: DIVMTQSPSSLAVSAGETVTINCKSSQSLLFSGNQKNYLAWYQQKPGQSPKLLIYWASTRQSGVPDRFIGSGSGTDFTLTIRSVQAEDLAIYYCQQYYDSPYTFGAGTKLELK
[3]
  Growth Inhibition TGD (%): 74* %
  Growth Inhibition TGImax (%): 70* %
  Response Frequency CR (%): 0%
  Response Frequency OR (%): 0%
  Response Frequency PR (%): 0%
